Legend:
Nicotiana benthamiana [1] = assay: Evaluation of auxin tolerance in greenhouse plants inoculated with clone transcript and sprayed with herbicide; type: in vivo; conditions: greenhouse; 30% or more of test population tolerant by 14 dat
Experimental: All primary hit sequences were evaluated for tolerance in larger plants, maintained under greenhouse conditions as described below.
Plant Growth and Maintenance. Nb seeds were sown in 6.5 cm pots filled with Redi-earth medium (The Scotts Company, Marysville, Ohio) pre-wetted by injection of Hoagland's fertilizer solution [all from the Scotts Company: 147 kg Peters Excel 15-15-15 Cal-Mag, 68 kg Peters Excel 15-0-0 Cal-Lite (15% Ca), and 45 kg Peters Excel 10-0-0 MagNitrate (10% Mg) in hot tap water to 596 L total volume] into irrigation water at a ratio of 200:1, using an injection system (H. E. Anderson, Muskogee Okla,). Seededpots were placed in the greenhouse for 1 day, transferred to a 27° C. germination chamber (Carolina Greenhouses, Kinston, N.C.) for 2 days, and then returned to the greenhouse. Shade curtains (33% transmittance) were used in the greenhouse to reduce solar intensity. To ensure 16 hour day length and supplement solar radiation on overcast days, artificial lighting consisting of a 1:1 mixture of metal halide and high pressure Sylvania sodium lamps was used, delivering approximately 220 μmol/m^2/s. Evaporative cooling and steam heat were used to maintain a daytime set point of 27° C. and a nighttime temperature of 22° C. At approximately 7 days post sowing (dps), seedlings were thinned to one seedling per pot and at 17 to 21 dps, the pots were spaced farther apart to accommodate plant growth. Plants were watered with Hoagland's solution as required. Following inoculation, waste irrigation water was collected and treated with 0.5% sodium hypochlorite for 10 minutes to neutralize any viral contamination before discharging into the municipal sewer.
Plant Inoculation. For each clone, 50 test plants as well as 10 GFP and bar (Thompson et al., EMBO J. 6:2519 [19870]) negative control plants were inoculated as follows: 2.0 mL of inoculum per clone were prepared by combining equal volumes of NCAP transcript and FES buffer [0.1 M glycine, 0.06 M K2HPO4, 1% sodium pyrophosphate, 1% diatomaceous earth (Sigma Chemical Company, St. Louis, Mo.), and either 1% silicon carbide (Aldrich Chemical Company, Milwaukee, Wis.), or 1% Bentonite (Sigma Chemical Company, St. Louis, Mo.)]. The inoculum was applied to each plant at 17 days post sowing by pipetting onto the upper surface of leaves 3 and 4 (˜20 μL per leaf). The inoculum was then spread across each leaf surface using a 3″ cotton tipped applicator (Calapro Swab, Fisher Scientific, Pittsburgh, Pa.) and a gloved finger to support the leaf. Following inoculation the plants were misted with deionized water.
Infection Scoring. At 8 days post inoculation (dpi), the plants were visually examined and a numerical score was assigned to each plant to indicate the extent of viral infection symptoms: 0=no infection, 1=possible infection, 2=infection symptoms limited to leaves <50-75% fully expanded, 3=typical systemic infection, 4=atypically severe infection, often accompanied by moderate to severe wilting and/or necrosis. Plants receiving an infection rating of 0, 1, or 4 were discarded.
Herbicide spraying. At 9 dpi, the well infected plants (infection score of 3, sometimes 2) were divided into 3 treatment groups. Group 1, to be sprayed with solvent only, contained 4 plants per test clone (2 plants per negative control) and Groups 2 and 3, to be treated with 13 or 40 g ae/ha, respectively, each consisted of 12 test plants per clone and 2 plants per negative control. […]

Nicotiana benthamiana [2] = assay: Cross-resistance testing against six auxin compounds (greenhouse); type: in vivo; conditions: for tolerance to picloram (Compound #5): 10 g ae/ha and 1/2x; for tolerance to positive control 4-amino-3,6-dichloropyridine-2-carboxylic acid (Compound #6): 10 g ae/ha and 1/2x (5 g ae/ha); for tolerance to dicamba (Compound #3): 64 g ae/ha and 1/2x; for tolerance to quinclorac (Compound #1): 200 g ae/ha and 1/2x; for extent of cross-resistance to the six auxin compounds: two trials, two doses per auxin, thresholds 25% or 35% injury or less
Text: Six compounds, representing five classes of auxin chemistry, were selected for testing the extent of auxinic tolerance of five hit sequences (129965 (SEQ ID NO:10), 130213 (SEQ ID NO: 14), 130294 (SEQ ID NO:360), 130994 (SEQ ID NO:361), and 129870 (SEQ ID NO:359)). The compounds included the following: • 1) quinclorac (BASF Corp., Research Triangle, N.C.) • 2) (2,4-dichlorophenoxy) acetic acid (Dow AgroSciences, Indianapolis, Ind.) • 3) dicamba (Monsanto, St. Louis, Mo.) • 4) benazolin (AgrEvo USA Company, Wilmington, Del.) • 5) picloram (Dow AgroSciences, Indianapolis, Ind.) • 6) 4-amino-3,6-dichloropyridine-2-carboxylic acid (Dow AgroSciences, Indianapolis, Ind.) Compound #6 served as a positive control, as these five sequences were identified for their herbicide tolerant function using this auxin (see Example 9). Compound #1 represents the quinoline carboxylic acid chemical family, #2 is in the phenoxy carboxylic acid class, #3 is benzoic acid chemistry, #4 is unique to any currently defined class, and #5 is in the same family as the positive control, pyridine carboxylic acids.
The protocol was essentially the same as that described in Example 9 for greenhouse evaluations. However, an individual experiment consisted of 200 test plants plus 35 GFP and 35 bar negative control plants inoculated per clone. […] Two doses per auxin were tested, with as many as 12 well-infected test plants and 2 of each of the negative controls per dose.
The six auxin solutions were prepared by dissolving solid compound in General Purpose Solvent (GPS: 97%DMSO: 3% acetone) to achieve the following spray rates (g ae/ha) when using the spray applicator and parameters outlined in Example 9: Compound #1) 200; 2) 42; 3) 64; 4) 200; 5) 10; 6) 10. From each of these solutions, a portion was diluted with an equal volume of GPS, resulting in 1× (“high dose”) and ½× (“low dose”) concentrations for spraying. Before spray application, each auxin solution was mixed with an equal volume of diluent containing surfactants for effective penetration. The diluent was prepared as follows: 420 mL GPS, 460 mL DI water, 120 mL isopropyl alcohol, 10.167 mL Agri-Dex (Helena Chemical Co., Memphis, Tenn.), and 0.167 mL Triton X-155 (Sigma Chemical Co., St. Louis, Mo.). In addition to the 200 and 100 g ae/ha rates tested for Compound #4 (benazolin), a concentration of 250 g ae/ha was also formulated as described above and tested.
Plants were sprayed and evaluated as described in Example 9. FIG. 7 summarizes the sequences tested and the highest dose of the compounds against which tolerance was observed. […] Results are reported in FIG. 7 for each of the trials with each construct.
The positive control (Compound #6) was formulated differently in this set of evaluations from that described in Example 9, for consistency in the solvent/surfactant background from which to compare the activity of the individual sequences against each auxin. Thus, the spray rate used for evaluation was lower than previous experiments, 5 vs. 13 g ae/ha. The need to lower the dose with this formulation to prevent total chlorosis and/or necrosis was likely due to the addition of DMSO, Agri-Dex, and Triton X-155 which were not used in Example 9.

B1: 130994: Poppy cDNA clone; auxin tolerance hit sequence (nucleic acid)
DNA: GAATTCAATCAAATGGCTACTGCTAGAGTTTTAGCTGCTAGTATGTTGCATGAATGCAACAACACTCACAGTGCTTCATTTCTTTTGAGACAATCTTCTTTCATCTTACCTATTAAACATCAAAGTATTAATTTCAGTAGAAGAGCATCTTCTAGGAGAGCTTTTACTTGCAAATCTCTTTACAAACCTGAAATTCAAATCAAACAAGAAGGTGAACCTCAAACCCTAGATTACAGAGTCTTCTTTCATGATAAATCTGGCAAAAAGCTTTCACCTTGGCATGATGTACCATTGCAATTGGGTGATGGAGTGTTCAATTTTATCGTGGAAATACCAAAAGAGACAAGTGCAAAGATGGAAGTTGCAACTGATGAGCCATATACTCCCATTAAACAGGACACCAAGAAGGGAAAACTTAGATTCTACCCCTACAACATCAATTGGAACTATGGATTGCTCCCACAGACATGGGAAGACCCAACAGTAGCTAATTCTGAAGTTGAAGGGGCATTCGGAGATAATGATCCAGTTGATGTTGTTGAAATTGGGGAGAGGCAAGGAAAAATTGGCGAGATTCTTAAAGTCAAGCCTTTAGGTGCTTTGGCTATGATTGACGAAGGAGAACTCGACTGGAAAATTGTTGCGATTTCGTTGGATGACCCAAAAGCTTCACTCGTCAATGATGTTGGTGATGTTGAGAAACATTTCCCGGGCACTCTCACTGCTATAAGAGATTGGTTCAGAGACTACAAGATCCCAGATGGAAAGCCTGCCAATAAGTTTGGACTTGGGAACAAAGCAGCCAACAAGGATTATGCTCTGAAGGTAATAACTGAAACCAACGAAGCTTGGGCTAAACTTGTCAAGAGAACTGTTCCTGCTGGGGAGCTCTCCCTTCTGTAAATTTTGAATTTTTAAAAGTTGAAGATAAGAGGCACTTTGGCCCGCTCCTATCCCCCTCCTCTCTCTATTGTTTTCTTTCATGCTGGATTCCAAACAAACTTCCTCCAATTTTTTGGACGAAGTATTGATAATTTCTAATCATTGAGCTCCATTTTTCAAAAAAAAAAAA
modifications: Poppy
reproducibility of auxin tolerance from Trial #1 to Trial #2 (Nicotiana benthamiana [1]): reproducible auxin tolerance
tolerance to picloram (Compound #5) (Nicotiana benthamiana [2]): demonstrated tolerance to each of the three compounds using the 35% injury threshold
tolerance to positive control 4-amino-3,6-dichloropyridine-2-carboxylic acid (Compound #6) (Nicotiana benthamiana [2]): tolerance consistently occurred at the lower threshold (25% injury or less)
tolerance to dicamba (Compound #3) (Nicotiana benthamiana [2]): demonstrated tolerance to each of the three compounds using the 35% injury threshold
tolerance to quinclorac (Compound #1) (Nicotiana benthamiana [2]): demonstrated tolerance to each of the three compounds using the 35% injury threshold
extent of cross-resistance to the six auxin compounds (Nicotiana benthamiana [2]): tolerance was observed against four compounds

B2: 129870: Poppy cDNA clone; auxin tolerance hit sequence (nucleic acid)
DNA: TTAATTAAGTCGACGAATTCAAATTAGGTCTAAAGATGGCGTCTTTAGCTCAACAATTCTCAGGATTAAGATGCCCACCACTTTCTTCTTCTCATCTAACAAAACCCTTTTCTTCAAAACCCCAGAAAACCACCTTTTCACCTATAGTTTCAGCAGCTGTCATTTCTAATGCACAAACTAAAGAAAGAAGTAGACTTAAAGAAATCTTCGAAGATGCTTATGAAAGATGTAGAACTACTCCAATGCAAGGTGTTGGTTTTACTGTTGATGATTTTCATGCTGCTCTTGAAAAGTATGATTACAATTCTGAGATTGGTACCAGGGTTAAAGGAACTGTGTTCTGTACAGACAACAACGGAGCATTAGTTGACATCACGGCGAAATCTTCAGCCTATTTACCAATCCAAGAGGCATGTATTCACAAAATAAAGCATGTAGAAGAAGCAGGAATAGTTGCAGGCCTACGTGAAGAGTTTGTGATTATTGGAGAGAACCAAGCTGATGATAGCTTGATCTTGAGTTTGCGTTCAATCCAATTTGACCTCGCATGGGAACGGTGTAGACAACTTCAGGCAGAGGATGTCGTCCTCAAGGGTAAGGTTGTTGGTGGAAACAAAGGCGGTGTGGTGGCAATTGTCGAAGGCCTTCGTGGTTTTATTCCATTCTCACAAATATCTTCAAAATCAACCGCGGAAGATCTCATTGATAAGGAGCTTCCTCTGAAATTTGTGGAAGTTGATGAGGAGCAGTCTAGACTTGTCCTCAGTAATCGCAAGGCCATGGCAGACAGCCAGGCACAGCTTGGTATTGGATCAGTTGTCACTGGAACAGTACAGAGTCTTAAGCCATATGGCGCTTTCATCGACATTGGTGGAATCAATGGTCTTCTTCATGTTAGTCAAATTAGTCATGATCGTGTCTCGGATATTGCAACAGTTCTTCAACCCGGCGACACTCTAAAGGTGATGATATTGAGCCACGACCGTGAGAGAGGCCGAGTCAGTCTATCCACCAAAAAGCTAGAGCCTACTCCAGGAGATATGATCCGTAACCCCAAGCTTGTTTTCGAGAAGGCTGAAGAAATGGCTCAGACATTCAGGCAGAGAATAGCTCAAGCAGAAGCTATGGCCCGTGCGGACATGCTGAGATTCCAACCCGAGAGTGGATTGACTCTAAGCTCAGACGGCATCTTAGGTCCCCTGACGCCAGACTTGCCTGCTGAAGGTCTAGATTTGAGCGACATTCCTGCAGCTGATGATGCATAGAAACCAATAAATATGAATTAAATCTGTCTTGACGTTTCTTCTCATCACCATTTTTAGGCTATGTAAGATGGGTCTATAGGTTGTTCAAAGTGTTGACTTGTGTATTTATCTTGATAGTTCAAAGTGTACTTCTTTAAGCGATAATCATTGAAAAGAAAAAATGGAGAAGGTAAAAGATAAAAATATCCAAAAAAAAAAAAAAAAAAAAAAAA
modifications: Poppy
reproducibility of auxin tolerance from Trial #1 to Trial #2 (Nicotiana benthamiana [1]): reproducible auxin tolerance
tolerance to picloram (Compound #5) (Nicotiana benthamiana [2]): demonstrated tolerance to each of the three compounds using the 35% injury threshold
tolerance to positive control 4-amino-3,6-dichloropyridine-2-carboxylic acid (Compound #6) (Nicotiana benthamiana [2]): tolerance consistently occurred at the lower threshold (25% injury or less)
tolerance to dicamba (Compound #3) (Nicotiana benthamiana [2]): demonstrated tolerance to each of the three compounds using the 35% injury threshold
tolerance to quinclorac (Compound #1) (Nicotiana benthamiana [2]): demonstrated tolerance to each of the three compounds using the 35% injury threshold
extent of cross-resistance to the six auxin compounds (Nicotiana benthamiana [2]): tolerance was observed against four compounds
